According to article PMC2995296:

Key:
[1] = biological target: 5-FAM-labeled phospho-T427 peptide of the Rad9 SCD (S. cerevisiae); experiment: fluorescence polarisation
[2] = biological target: GST-BRCT (Rad9 tandem BRCT domain fused to GST), wild type (S. cerevisiae); experiment: pull-down

Kd [1] | yield of N-SCD in the pull-down (percent of the starting material) [2] | Substance
78 µM |  | GST-BRCT (Rad9 tandem BRCT domain fused to GST), wild type (domain or fragment)
 | > 10% | PIKK-phosphorylated N-SCD (N-terminal fragment of Rad9-TEV-HA from MMS-treated cells) (from UniProt P14737 1-990) (domain or fragment)
